Measured values as given in patent US7943358B2, “Polymerase enhancing factor (PEF) extracts, PEF protein complexes, isolated PEF protein, and methods for purifying and identifying” (Agilent Technologies, Inc., priority 1997, dated 2011).

Legend:
Type in all cases: biochemical
[1] = Reverse phase HPLC analysis, reactivity with other nucleotides
Method: The similarity of P45 to dCTP deaminases prompted us to test whether dCTP or other nucleotide triphosphates were substrates of PEF/P45. PEF was incubated with dCTP or dUTP and the reaction products were separated by reverse phase HPLC. Reaction mixtures (50 μl) containing 1× cloned Pfu polymerase buffer, 10 mM dCTP or dUTP, and 700 ng PEF (or 5 μl of cloned p45 (˜100 ng) or nothing (neg. control)) were incubated at 72° C. for 1 hour. The samples were injected on a […] Waters Delta-pak C-18 column (300 angstrom/15 μm), equilibrated in 50 mM triethylammonium acetate, pH (7.0) (A). Products were eluted with acetonitrile (B) at 2 ml/min. using the following gradient: 0% B for 5 minutes, 0-10% B over 20 minutes. Absorbence of the eluate was monitored with a photodiode array detector, and peak areas were integrated at 260 nm.
In addition to dUTP, dCTP was also found to serve as a substrate for PEF (FIG. 17). The product of the PEF+dCTP reaction appeared to be dCMP, based upon its retention time and absorbence maxima. Although PEF utilizes dCTP, dUTP is the preferred substrate of PEF/P45. In the example shown, only 16.6% of the dCTP was converted in 1 hour under the same conditions which converted 100% dUTP (FIG. 17, panel B). […] No reactivity with PEF was detected for the following nucleotides: dGTP, dATP, dTTP, dCMP, dUMP, and rUTP under the conditions used.

[2] = PCR cycling of dCTP in the presence of PEF or Pfu DNA polymerase, HPLC; settings: 10 mM dCTP, 0.5 ng PEF/μl
Taq DNA polymerase = Taq DNA polymerase (Thermus aquaticus, UniProt P19821); assay: PCR with Taq DNA polymerase
Sequence of Taq DNA polymerase (P19821 whole entry): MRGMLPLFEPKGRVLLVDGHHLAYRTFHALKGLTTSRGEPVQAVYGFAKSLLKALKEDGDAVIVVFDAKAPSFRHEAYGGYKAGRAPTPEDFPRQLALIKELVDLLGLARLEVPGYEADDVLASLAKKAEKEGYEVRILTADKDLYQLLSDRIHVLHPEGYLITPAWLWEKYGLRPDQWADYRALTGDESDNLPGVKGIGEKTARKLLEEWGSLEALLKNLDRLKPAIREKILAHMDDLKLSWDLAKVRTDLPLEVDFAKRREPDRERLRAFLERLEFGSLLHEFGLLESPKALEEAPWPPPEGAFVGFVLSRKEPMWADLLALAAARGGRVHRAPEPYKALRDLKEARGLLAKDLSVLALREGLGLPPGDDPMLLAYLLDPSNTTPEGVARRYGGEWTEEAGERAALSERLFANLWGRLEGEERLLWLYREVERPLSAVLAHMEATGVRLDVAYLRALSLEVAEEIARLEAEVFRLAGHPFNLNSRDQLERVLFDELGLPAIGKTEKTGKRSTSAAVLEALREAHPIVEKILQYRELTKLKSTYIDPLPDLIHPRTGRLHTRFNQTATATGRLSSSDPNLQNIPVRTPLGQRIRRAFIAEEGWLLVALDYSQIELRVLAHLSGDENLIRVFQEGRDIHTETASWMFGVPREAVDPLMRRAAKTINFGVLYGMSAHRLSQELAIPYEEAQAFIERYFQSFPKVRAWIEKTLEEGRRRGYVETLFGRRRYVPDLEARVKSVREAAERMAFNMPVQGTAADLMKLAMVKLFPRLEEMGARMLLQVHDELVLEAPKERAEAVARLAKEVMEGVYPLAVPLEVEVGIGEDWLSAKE
Method: FIGS. 33, 34, 35, and 36. Enhancing activity of P. furiosus PEF in PCRs conducted with Pwo (FIG. 33); JDF-3 (FIGS. 34 and 35), ES4 and Vent (FIG. 35). and Deep Vent (FIG. 36) DNA polymerases. In FIG. 33, 25 μl PCRs were conducted using the 6.2 kb test system (example 1) with 25 U/ml Pwo DNA polymerase and 1× cloned Pfu PCR buffer. 1 μl of S200-purified P. furiosus PEF (prep 1; 225 ng/μl) was added undiluted (lane 1) or diluted 1:10 (lane 2), 1:1000 (lane 3), 1:10,000 (lane 4). 1 μl of dilution buffer was added as a negative control (lane 5). In FIG. 34, a 10 kb lambda DNA-target was amplified from lambda DNA (lanes 1-4; 5-7; 11-13) or mouse genomic DNA, containing 40 copies (lanes 8-10) or 1 copy (lanes 14-16) of a lambda DNA transgene. 100 μl PCRs were conducted with 250 ng of lambda DNA (Sigma) or mouse genomic DNA and 250 ng of primers (F51-20 5′[…] (SEQ ID NO: 22); R10163-20 5′CCA-TCT-CAC-GCG-CCA-GTT-TC) (SEQ ID NO: 23). PCRs were conducted in Taq PCR buffer using 5 U Taq DNA polymerase (lanes 1-4) or 1 U JDF3 DNA polymerase (lanes 5-16). 1 μl of the following was added to PCRs: S200-purified PEF (prep. 3; 550 ng/μl PEF) diluted 1:500 (lanes 2, 12, 15), 1:100 (lanes 6, 9), 1:50 (lane 3), 1:10 (lanes 7, 10, 13, 16), or 1:5 (lane 4). 1 μl of dilution buffer was added as a negative control (lanes 1, 5, 8, 11, 14). […]

B1: PEF: polymerase enhancing factor complex purified from Pyrococcus furiosus; predominant components P50 and P45 (protein)
chain 1: MLHHVKLIYATKSRKLVGKKIVXXXPGSIAALDVKACEGLIRHGAEVHAVMSEAATKIIHPYAWNLPTGNPVITEITGFIEHVELAGEHENKADLILVCPATANTISKIACGIDDTPVTTVVTTAFPHIPIMIAPAMHETMYRHPIVRENIERLKKLGVEFIGPRIEEGRAKVASIDEIVYRVIKKLHKKTLEGKRVLVTAGATREYIDPIRFITNASSGKMGVALAEEADFRGAVTLIRTKGSVKAFRIRKIKLKVETVEEMLSAIENELRSKKYDVVIMAAAVSDFRPKIKAEGKIKSGRSITIELVPXNPKIIDRIKEIQPNVFLVGFKAETSKEKLIEEGKRQIERAKADLVVGNTLEAFGSEENQVVLIGRDFTKELPKMKKRELAERIWDEIEKXLS
chain 2: MLLPDWKIRKEILIEPFSEESLQPAGYDLRVGREAFVKGKLIDVEKEGKVVIPPREYALILTLERIKLPDDVMGDMKIRSSLAREGVIGSFAWVDPGWDGNLTLMLYNASNEPVELRYGERFVQIAFIRLEGPARNPYRGNYQGSTRLAFSKRKKL
modifications: not fully specified; X: residue not identified in the source
notes: polymerase enhancing factor complex purified from Pyrococcus furiosus; predominant components P50 and P45
Question: Which “reactivity with dGTP, dATP, dTTP, dCMP, dUMP, rUTP” value [1] does the source give for B1 here?
Answer: No reactivity

Question: What about the “dCDP after PCR cycling in presence of PEF” value [2] of the same molecule?
Answer: 19%

Question: And the “dCMP after PCR cycling in presence of PEF” value [2]?
Answer: 8%

Question: What about the “dCTP after PCR cycling in presence of PEF” value [2] of the same molecule?
Answer: 73%

Question: What about the “dUTP after PCR cycling in presence of PEF” value [2] of the same molecule?
Answer: no detectable dUTP

Question: What about the “yield of PCR products generated with Taq DNA polymerase” value (Taq DNA polymerase) of the same molecule?
Answer: may not enhance the yield
